In patent US6387638:
Read-outs that look alike come from different tables or passages of the source. Ends that are not written are not given here.

How the values were obtained:
[1] = target: T1, ErbB-3 receptor-Ig fusion (homodimer) (human, UniProt P21860 20-643; P21860 20-636); experiment: phage ELISA, soluble ErbB-3-Ig as competitor
[2] = target: T2, ErbB-4 receptor-Ig fusion (homodimer) (human, UniProt Q15303 26-651; Q15303 26-640); experiment: phage ELISA, soluble ErbB-4-Ig as competitor
[3] = target: T2, ErbB-4 receptor-Ig fusion (homodimer); experiment: phage ELISA, soluble ErbB-4-Ig as competitor; remark: listed apart in the source
[4] = target: T1, ErbB-3 receptor-Ig fusion (homodimer); experiment: phage ELISA, soluble ErbB-3-Ig as competitor; remark: listed apart in the source
[5] = target: T1, ErbB-3 receptor-Ig fusion (homodimer); experiment: displacement of 125I-HRG-β1 177-244 from plate-bound ErbB-3-Ig
[6] = target: T2, ErbB-4 receptor-Ig fusion (homodimer); experiment: displacement of 125I-HRG-β1 177-244 from plate-bound ErbB-4-Ig
[7] = target: T1, ErbB-3 receptor-Ig fusion (homodimer); experiment: phage ELISA, soluble ErbB-3-Ig as competitor; remark: listed apart in the source
[8] = target: T2, ErbB-4 receptor-Ig fusion (homodimer); experiment: phage ELISA, soluble ErbB-4-Ig as competitor; remark: listed apart in the source

T1 sequence (P21860 other isoform, or with tags, fused parts or gaps): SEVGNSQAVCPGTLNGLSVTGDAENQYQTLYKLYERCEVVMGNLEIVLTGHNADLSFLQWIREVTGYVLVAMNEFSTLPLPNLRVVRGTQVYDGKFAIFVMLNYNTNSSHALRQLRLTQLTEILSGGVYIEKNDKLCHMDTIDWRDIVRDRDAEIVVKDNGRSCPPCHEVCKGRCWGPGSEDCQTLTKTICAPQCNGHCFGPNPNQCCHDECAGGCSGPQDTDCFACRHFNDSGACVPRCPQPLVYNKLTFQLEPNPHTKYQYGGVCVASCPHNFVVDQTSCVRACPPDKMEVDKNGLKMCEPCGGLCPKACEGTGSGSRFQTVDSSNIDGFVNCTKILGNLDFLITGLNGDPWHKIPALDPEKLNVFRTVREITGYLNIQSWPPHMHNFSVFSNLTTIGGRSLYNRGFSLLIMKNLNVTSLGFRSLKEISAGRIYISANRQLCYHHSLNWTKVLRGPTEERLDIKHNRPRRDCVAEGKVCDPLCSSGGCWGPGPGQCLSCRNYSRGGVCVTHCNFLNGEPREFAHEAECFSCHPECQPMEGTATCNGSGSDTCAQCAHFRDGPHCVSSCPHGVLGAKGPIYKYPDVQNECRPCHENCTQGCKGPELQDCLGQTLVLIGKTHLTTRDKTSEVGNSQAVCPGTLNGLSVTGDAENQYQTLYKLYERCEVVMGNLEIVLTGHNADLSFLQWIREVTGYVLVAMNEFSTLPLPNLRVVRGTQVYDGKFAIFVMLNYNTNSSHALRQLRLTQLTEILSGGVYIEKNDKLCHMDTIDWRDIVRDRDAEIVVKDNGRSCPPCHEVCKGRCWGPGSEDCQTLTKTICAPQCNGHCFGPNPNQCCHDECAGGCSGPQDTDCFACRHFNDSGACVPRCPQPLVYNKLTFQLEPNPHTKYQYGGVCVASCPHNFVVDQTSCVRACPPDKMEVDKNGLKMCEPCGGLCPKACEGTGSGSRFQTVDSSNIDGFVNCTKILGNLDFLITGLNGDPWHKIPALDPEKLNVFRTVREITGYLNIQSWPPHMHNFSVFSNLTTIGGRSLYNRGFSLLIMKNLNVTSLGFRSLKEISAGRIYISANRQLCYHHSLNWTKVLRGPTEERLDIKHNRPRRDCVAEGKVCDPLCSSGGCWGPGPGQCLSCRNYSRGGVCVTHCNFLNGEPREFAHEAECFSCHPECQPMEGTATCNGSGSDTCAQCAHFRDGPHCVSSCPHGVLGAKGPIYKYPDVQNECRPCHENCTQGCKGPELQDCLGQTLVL
T2 sequence (Q15303 other isoform, or with tags, fused parts or gaps): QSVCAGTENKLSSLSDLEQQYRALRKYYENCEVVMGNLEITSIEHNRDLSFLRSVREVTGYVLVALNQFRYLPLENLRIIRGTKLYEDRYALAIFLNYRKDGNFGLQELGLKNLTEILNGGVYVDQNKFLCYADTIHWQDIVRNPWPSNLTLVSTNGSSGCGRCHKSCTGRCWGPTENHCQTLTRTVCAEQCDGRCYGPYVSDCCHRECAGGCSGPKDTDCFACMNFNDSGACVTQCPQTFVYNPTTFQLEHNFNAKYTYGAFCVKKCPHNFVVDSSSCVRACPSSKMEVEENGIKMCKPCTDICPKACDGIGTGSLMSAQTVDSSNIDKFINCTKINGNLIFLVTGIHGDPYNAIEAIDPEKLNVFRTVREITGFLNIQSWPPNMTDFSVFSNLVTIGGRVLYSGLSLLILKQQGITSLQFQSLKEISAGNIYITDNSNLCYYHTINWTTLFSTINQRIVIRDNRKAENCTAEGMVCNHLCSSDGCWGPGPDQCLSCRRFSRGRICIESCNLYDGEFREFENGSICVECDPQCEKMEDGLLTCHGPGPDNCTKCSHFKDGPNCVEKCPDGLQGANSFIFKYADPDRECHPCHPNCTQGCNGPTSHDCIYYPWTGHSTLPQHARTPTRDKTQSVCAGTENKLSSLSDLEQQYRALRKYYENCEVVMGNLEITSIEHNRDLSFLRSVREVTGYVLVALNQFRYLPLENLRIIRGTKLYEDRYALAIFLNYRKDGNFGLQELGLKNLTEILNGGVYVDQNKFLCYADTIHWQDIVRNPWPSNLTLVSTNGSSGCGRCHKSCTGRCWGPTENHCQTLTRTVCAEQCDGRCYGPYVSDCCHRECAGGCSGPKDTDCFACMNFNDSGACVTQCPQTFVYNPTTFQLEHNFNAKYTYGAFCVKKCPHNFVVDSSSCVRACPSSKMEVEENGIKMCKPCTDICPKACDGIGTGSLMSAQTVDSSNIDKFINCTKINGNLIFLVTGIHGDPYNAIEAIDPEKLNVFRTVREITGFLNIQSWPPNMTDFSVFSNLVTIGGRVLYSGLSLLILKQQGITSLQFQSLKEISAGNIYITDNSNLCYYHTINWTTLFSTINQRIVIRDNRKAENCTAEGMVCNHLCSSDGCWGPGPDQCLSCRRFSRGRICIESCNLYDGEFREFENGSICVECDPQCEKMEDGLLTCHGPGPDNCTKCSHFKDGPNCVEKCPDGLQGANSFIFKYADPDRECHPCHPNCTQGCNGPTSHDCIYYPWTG

## HRG-β1 177-244 H178L, phage-displayed (Example 4 clone) (from UniProt P69168 265-424) (ligand)
[1]
  EC50 Mut/WT: 1.4
[2]
  EC50 Mut/WT: 1.2

## HRG-β1 177-244 L179V, phage-displayed (Example 4 clone) (from UniProt P69168 265-424) (ligand)
[1]
  EC50 Mut/WT: 1.5
[2]
  EC50 Mut/WT: 1.6

## HRG-β1 177-244 R207P, phage-displayed (Example 4 clone) (from UniProt P69168 265-424) (ligand)
[1]
  EC50 Mut/WT: 6.1
[2]
  EC50 Mut/WT: 1.3

## HRG-β1 177-244 H178D L179V, phage-displayed (Example 4 clone) (from UniProt P69168 265-424) (ligand)
[1]
  EC50 Mut/WT: 2.2
[2]
  EC50 Mut/WT: 2

## HRG-β1 177-244 H178L with 228-231 replaced by Met, phage-displayed (Example 4 clone) (from UniProt P69168 265-424) (ligand)
[1]
  EC50 Mut/WT: 6.4
[2]
  EC50 Mut/WT: 1.7

## HRG-β1 177-244 H178E, phage-displayed (Example 4 clone) (from UniProt P69168 265-424) (ligand)
[1]
  EC50 Mut/WT: 9.5
[2]
  EC50 Mut/WT: 1.7

## HRG-β1 177-244 H178W with 228-231 replaced by Met, phage-displayed (Example 4 clone) (from UniProt P69168 265-424) (ligand)
[1]
  EC50 Mut/WT: 1.2
[2]
  EC50 Mut/WT: 1.7

B1: HRG8: wild-type HRG-β1 177-228 (HRG-β1 EGF 1-52) fused via (GGGS)3 to pIII 323, phage-displayed (ligand, phage M13)
chain: SHLVKCAEKEKTFCVNGGECFMVKDLSNPSRYLCKCPNEFTGDRCQNYVMASGGGSGGGSGGGSNSQMAQVGDGDNSPLMNNFRQYLPSLPQSVECRPFVFSAGKPYEFSIDCDKINLFRGVFAFLLYVATFMYVFSTFANILRNKES
notes: range 323-end; Monovalent M13 phage display; also called wild-type HRG-β1 EGF-phage
[3]
  EC50(wt)/EC50(mut): 1 ratio
[4]
  EC50(wt)/EC50(mut): 1 ratio

B2: combination variant HRG60, phage-displayed (ligand)
chain: SHLVKCGEEREGFCVNGGECYRVKTLSNPSRYLCKCPNEFTGDRCQNYVIAS
modifications: not fully specified; cysteine pairing not given here
notes: not shown: Display carrier only: (GGGS)3 linker and the M13 pIII C-terminal fragment from residue 323
[4]
  EC50(wt)/EC50(mut): 63 ratio

B3: combination variant HRG61, phage-displayed (ligand)
chain: SHLVKCGEEREGFCVNGGECFMVKDYGYLMCKCPNEFTGDRCQNYVIAS
modifications: not fully specified; cysteine pairing not given here
notes: as for B2
[4]
  EC50(wt)/EC50(mut): 29 ratio

B4: combination variant HRG62, phage-displayed (ligand)
chain: SHLVKCGEEREGFCVNGGECYRVKTYGYLMCKCPNEFTGDRCQNYVIAS
modifications: not fully specified; cysteine pairing not given here
notes: as for B2
[4]
  EC50(wt)/EC50(mut): 32 ratio

B5: combination variant HRG71, phage-displayed (ligand)
chain: SHLVKCAEKEKTFCVNGGECYRVKTYGYLMCKCPNEFTGDRCQHYVIAS
modifications: not fully specified; cysteine pairing not given here
notes: as for B2
[4]
  EC50(wt)/EC50(mut): 79 ratio

B6: Trx-HRG-β1 146-244 S177A fusion (soluble) (ligand)
chain: AYVSSESPIRISVSTEGANTSSSTSTSTTGTAHLVKCAEKEKTFCVNGGECFMVKDLSNPSRYLCKCPNEFTGDRCQNYVMASFYKHLGIEFMEAEELY
[5]
  EC50: 129 nM
[6]
  EC50: 54.6 nM

B7: HRG-β1 177-244 L179M, phage-displayed (Example 4 clone) (ligand)
chain: SHMVKCAEKEKTFCVNGGECFMVKDLSNPSRYLCKCPNEFTGDRCQNYVMASFYKHLGIEFMEAEELY
notes: not shown: Display carrier only: the M13 pIII C-terminal fragment from residue 247
[7]
  EC50 Mut/WT: 1.2 ratio
[8]
  EC50 Mut/WT: 1.5 ratio

B8: Trx-HRG-β1 146-244 H178A fusion (soluble) (ligand)
chain: AYVSSESPIRISVSTEGANTSSSTSTSTTGTSALVKCAEKEKTFCVNGGECFMVKDLSNPSRYLCKCPNEFTGDRCQNYVMASFYKHLGIEFMEAEELY
[5]
  EC50: 476 nM
[6]
  EC50: 138 nM

B9: HRG-β1 177-244 H178E L179V, phage-displayed (Example 4 clone) (ligand)
chain: SEVVKCAEKEKTFCVNGGECFMVKDLSNPSRYLCKCPNEFTGDRCQNYVMASFYKHLGIEFMEAEELY
notes: also called E V ·; not shown: M13 pIII C-terminal fragment (fusion point pIII 247), the phage display partner
[7]
  EC50 Mut/WT: 0.8 ratio
[8]
  EC50 Mut/WT: 1.7 ratio

B10: HRG-β1 177-244 H178T L179M, phage-displayed (Example 4 clone) (ligand)
chain: STMVKCAEKEKTFCVNGGECFMVKDLSNPSRYLCKCPNEFTGDRCQNYVMASFYKHLGIEFMEAEELY
notes: also called T M ·; not shown: M13 pIII C-terminal fragment (fusion point pIII 247), the phage display partner
[7]
  EC50 Mut/WT: 1.4 ratio
[8]
  EC50 Mut/WT: 1.6 ratio

B11: Trx-HRG-β1 146-244 L179A fusion (soluble) (ligand)
chain: AYVSSESPIRISVSTEGANTSSSTSTSTTGTSHAVKCAEKEKTFCVNGGECFMVKDLSNPSRYLCKCPNEFTGDRCQNYVMASFYKHLGIEFMEAEELY
[5]
  EC50: 394 nM
[6]
  EC50: 51.7 nM

B12: Trx-HRG-β1 146-244 F189A fusion (soluble) (ligand)
chain: AYVSSESPIRISVSTEGANTSSSTSTSTTGTSHLVKCAEKEKTACVNGGECFMVKDLSNPSRYLCKCPNEFTGDRCQNYVMASFYKHLGIEFMEAEELY
[5]
  EC50: 975 nM
[6]
  EC50: 565 nM

B13: Trx-HRG-β1 146-244 N192A fusion (soluble) (ligand)
chain: AYVSSESPIRISVSTEGANTSSSTSTSTTGTSHLVKCAEKEKTFCVAGGECFMVKDLSNPSRYLCKCPNEFTGDRCQNYVMASFYKHLGIEFMEAEELY
[5]
  EC50: 1640 nM
[6]
  EC50: 696 nM

B14: Trx-HRG-β1 146-244 G193A fusion (soluble) (ligand)
chain: AYVSSESPIRISVSTEGANTSSSTSTSTTGTSHLVKCAEKEKTFCVNAGECFMVKDLSNPSRYLCKCPNEFTGDRCQNYVMASFYKHLGIEFMEAEELY
[5]
  EC50: 26.9 nM
[6]
  EC50: 76.3 nM

B15: Trx-HRG-β1 146-244 G194A fusion (soluble) (ligand)
chain: AYVSSESPIRISVSTEGANTSSSTSTSTTGTSHLVKCAEKEKTFCVNGAECFMVKDLSNPSRYLCKCPNEFTGDRCQNYVMASFYKHLGIEFMEAEELY
[5]
  EC50: 1210 nM
[6]
  EC50: 275 nM

B16: Trx-HRG-β1 146-244 E195A fusion (soluble) (ligand)
chain: AYVSSESPIRISVSTEGANTSSSTSTSTTGTSHLVKCAEKEKTFCVNGGACFMVKDLSNPSRYLCKCPNEFTGDRCQNYVMASFYKHLGIEFMEAEELY
[5]
  EC50: 42 nM
[6]
  EC50: 13.2 nM

B17: Trx-HRG-β1 146-244 K200A fusion (soluble) (ligand)
chain: AYVSSESPIRISVSTEGANTSSSTSTSTTGTSHLVKCAEKEKTFCVNGGECFMVADLSNPSRYLCKCPNEFTGDRCQNYVMASFYKHLGIEFMEAEELY
[5]
  EC50: 45.4 nM
[6]
  EC50: 16.9 nM

B18: Trx-HRG-β1 146-244 P205A fusion (soluble) (ligand)
chain: AYVSSESPIRISVSTEGANTSSSTSTSTTGTSHLVKCAEKEKTFCVNGGECFMVKDLSNASRYLCKCPNEFTGDRCQNYVMASFYKHLGIEFMEAEELY
[5]
  EC50: 39.5 nM
[6]
  EC50: 34.2 nM

B19: Trx-HRG-β1 146-244 R207A fusion (soluble) (ligand)
chain: AYVSSESPIRISVSTEGANTSSSTSTSTTGTSHLVKCAEKEKTFCVNGGECFMVKDLSNPSAYLCKCPNEFTGDRCQNYVMASFYKHLGIEFMEAEELY
[5]
  EC50: 245 nM
[6]
  EC50: 24.3 nM

B20: Trx-HRG-β1 146-244 T217A fusion (soluble) (ligand)
chain: AYVSSESPIRISVSTEGANTSSSTSTSTTGTSHLVKCAEKEKTFCVNGGECFMVKDLSNPSRYLCKCPNEFAGDRCQNYVMASFYKHLGIEFMEAEELY
[5]
  EC50: 145 nM
[6]
  EC50: 32.7 nM
